We go through two molecules from article PMC8499050 (Blood, 2021).

Assay [1] concerns the target EGR-chloromethylketone active-site inhibited des-(Gla-EGF1) FIXa (Homo sapiens, EGR-chloromethylketone in the active site). Put plainly: crystal structure.
Assay [2] deals with T1, EGR-chloromethylketone active-site inhibited des-(Gla-EGF1) FXa (Homo sapiens, EGR-chloromethylketone in the active site).
T1 chain 1: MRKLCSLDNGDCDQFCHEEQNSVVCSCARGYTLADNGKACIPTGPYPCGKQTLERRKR
T1 chain 2: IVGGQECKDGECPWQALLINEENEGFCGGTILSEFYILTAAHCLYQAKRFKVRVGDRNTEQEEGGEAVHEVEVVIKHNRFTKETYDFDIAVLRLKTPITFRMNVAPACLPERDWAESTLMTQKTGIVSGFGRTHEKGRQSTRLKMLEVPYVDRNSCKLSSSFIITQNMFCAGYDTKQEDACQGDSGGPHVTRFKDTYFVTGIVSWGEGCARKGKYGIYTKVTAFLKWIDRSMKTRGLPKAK
The assay is described as follows: crystal structure.

B1: Mim8 anti-FIXa Fab fragment (Fab, V domains shown)
VH: EVQLVESGGGLVQPGRSLRLSCAASGFTFHDYAMHWVRQVPGKGLEWVSGISWRGDIGGYVKSVKGRFTISRDNAKNSLYLQMNSLRAEDTALYYCVKSYGSGSFYNAFDSWGQGTLVTVSS
VL: DIQMTQSPSTLSASVGDRVTITCRASQSISSWLAWYQQKPGKAPKFLIYKASKLERGTPSRFSGSGDGTEFSLTISSLQPDDFATYYCLEYSSYIRTFGQGTKVEIK
For the molecule B1, the binding result in assay [1] was “binds”.

B2: Mim8 anti-FX Fab fragment (Fab, V domains shown)
VH: EVQLVQSGAEVKKPGESLRISCKGSGYSFSTSWIVWVRQMPGKGLEWMGMIDPSDSFTSYSPSFQGHVTISADKSISTAYLQWSSLKASDTAMYYCARLHYYNSEEFDVWGQGTLVTVSS
VL: EIVLTQSPGTLSLSPGERATLSCRASQSVSSSYLAWYQQKPGQAPRLLIYGQSSRTRGIPDRFSGSGSGTDFTLTISRLEPEDFAVYYCQQFGDSQLFTFGQGTKLEIK
In the case of B2, the binding result in assay [2] is “binds”.
